In patent US20200397865A1 (ACCELERON PHARMA, published 2020):

B1: ActRIIB-Fc homodimer (Fc fusion, UniProt Q13705 20-134, looked up)
chain: GRGEAETRECIYYNANWELERTNQSGLERCEGEQDKRLHCYASWRNSSGTIELVKKGCWLDDFNCYDRQECVATEENPQVYFCCCEGNFCNERFTHLPEAGGPEVTYEPPPTAPT
notes: also called ActRIIB-Fc:ActRIIB-Fc homodimer; ActRIIB homodimer; not shown: linker and Fc
B2: activin A (ligand, UniProt P08476 311-426, looked up)
chain: GLECDGKVNICCKKQFFVSFKDIGWNDWIIAPSGYHANYCEGECPSHIAGTSGSSLSFHSTVINHYRMRGHSPFANLKSCCVPTKLRPMSMLYYDDGQNIIKKDIQNMIVEECGCS
notes: also called ActA
B3: activin B (ligand, UniProt P09529 293-407, looked up)
chain: GLECDGRTNLCCRQQFFIDFRLIGWNDWIIAPTGYYGNYCEGSCPAYLAGVPGSASSFHTAVVNQYRMRGLNPGTVNSCCIPTKLSTMSMLYFDDEYNIVKRDVPNMIVEECGCA
B4: BMP6 (ligand, UniProt P22004 382-513, looked up)
chain: QQSRNRSTQSQDVARVSSASDYNSSELKTACRKHELYVSFQDLGWQDWIIAPKGYAANYCDGECSFPLNAHMNATNHAIVQTLVHLMNPEYVPKPCCAPTKLNAISVLYFDDNSNVILKKYRNMVVRACGCH

Columns and labels:
Experiment in all cases: SPR (Biacore), Fc protein captured by anti-Fc antibody, ligand injected
[1] = target: B3
Procedure: (§1) A Biacore™-based binding assay was used to compare ligand binding selectivity of the ALK4-Fc:ActRIIB-Fc heterodimeric complex described above with that of ActRIIB-Fc and ALK4-Fc homodimer complexes. The ALK4-Fc:ActRIIB-Fc heterodimer, ActRIIB-Fc homodimer, and ALK4-Fc homodimer were independently captured onto the system using an anti-Fc antibody. Ligands were injected and allowed to flow over the captured receptor protein. Results are summarized in the table below, in which ligand off-rates (kd) most indicative of effective ligand traps are denoted in bold font.

[2] = target: B4
Procedure: as §1

[3] = target: B2
Procedure: as §1

[4] = target: T1, ALK4-Fc:ActRIIB-Fc heterodimer (human, UniProt P36896 24-126; Q13705 20-134)
T1 construct: also called ALK4-Fc:ActRIIB-Fc heterodimeric complex; ALK4:ActRIIB heterodimer; not shown: linker and engineered Fc
T1 sequence 1: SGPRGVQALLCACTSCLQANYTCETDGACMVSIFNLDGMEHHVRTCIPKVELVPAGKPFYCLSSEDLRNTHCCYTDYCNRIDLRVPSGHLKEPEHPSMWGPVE
T1 sequence 2: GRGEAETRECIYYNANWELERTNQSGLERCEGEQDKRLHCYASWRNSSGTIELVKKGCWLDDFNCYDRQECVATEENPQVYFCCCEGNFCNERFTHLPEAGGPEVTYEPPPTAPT
Procedure: as §1

[5] = target: B1
Procedure: as §1

Binder	Kd [4] [nM]	koff [4] [s⁻¹]	kon [4] [M⁻¹ s⁻¹]	Kd [5] [nM]	koff [5] [s⁻¹]	kon [5] [M⁻¹ s⁻¹]	further results
B1							Kd [1]: 0.02 nM; koff [1]: 0.0001 s⁻¹; kon [1]: 5.1e+06 M⁻¹ s⁻¹; Kd [2]: 0.19 nM; koff [2]: 0.0068 s⁻¹; kon [2]: 3.2e+07 M⁻¹ s⁻¹; Kd [3]: 0.019 nM; koff [3]: 0.00023 s⁻¹; kon [3]: 1.2e+07 M⁻¹ s⁻¹
B2	0.012	0.00015	1.3e+07				
B3	0.006	4e-05	7.1e+06				
B4	2.7	0.0055	2e+06				
BMP9 (ligand, UniProt Q9UK05 320-429, looked up, also called GDF2) SAGAGSHCQKTSLRVNFEDIGWDSWIIAPKEYEAYECKGGCFFPLADDVTPTKHAIVQTLVHLKFPTKVGKACCVPTKLSPISVLYKDDMGVPTLKYHYEGMSVAECGCR	3.4			0.077	0.0011	1.4e+07	
BMP10 (ligand, UniProt O95393 317-424, looked up) NAKGNYCKRTPLYIDFKEIGWDSWIIAPPGYEAYECRGVCNYPLAEHLTPTKHAIIQALVHLKNSQKASKACCVPTKLEPISILYLDKGVVTYKFKYEGMAVSECGCR	0.074	0.0041	5.6e+07	0.011	0.00026	2.3e+07	
GDF3 (ligand, UniProt Q9NR23 251-364, looked up) AAIPVPKLSCKNLCHRHQLFINFRDLGWHKWIIAPKGFMANYCHGECPFSLTISLNSSNYAFMQALMHAVDPEIPQAVCIPTKLSPISMLYQDNNDNVILRHYEDMVVDECGCG	4.9	0.017	3.4e+06	1.5	0.0022	1.4e+06	
GDF11 (ligand, UniProt O95390 299-407, looked up, also called BMP11) NLGLDCDEHSSESRCCRYPLTVDFEAFGWDWIIAPKRYKANYCSGQCEYMFMQKYPHTHLVQQANPRGSAGPCCTPTKMSPINMLYFNDKQQIIYGKIPGMVVDRCGCS	0.003	0.00011	3.8e+07	0.002	0.00011	5e+07	
